Laboratory results as given in patent US20150104459A1 (published 2015).

B1: TCN-552 (5249_I23) (antibody, V domains shown)
VH: QVQVVQSGAEVKKPGSSVRVSCQASGGTFMNYAIIWVRRAPGQGLEWMGGIIPVFPTPNYAQMFQGRVTISTDESRSTSFLELTNLRYEDTAVYYCARRIYHGGNSGFDFWGQGTLVTVSS
VL: EIVLTQSPATLSLSPGERATLSCRASQSVGNYLAWYQQKPGQAPRLLIYDSSNRAPGIPARFSGSGSGTDFTLTISSLAPEDFAVYYCQQRSKWPPMYSFGHGTKLEIK
B2: TCN-537 (3194_D21) (antibody, V domains shown)
VH: QVQLQQWGSGLLKPSETLSLTCAVYGGSFRDDYWTWIRQPPGKGLEWIGEINHSGRTNYNPSLKSRVTISVDTSLKQFSLKVISVTAADTAVYYCARGTSHVSRYFDWLPPTNWFDPWGQGTQVTVSS
VL: DIVLTQSPGTLSLSPGERATLSCRASQSVSSSYLAWYQQKPGQAPRLVMYGAATRATGIPDRFSGSGSGPDFTLTISRLEPEDFAMYYCQQYGNSPITFGQGTRLEIK
B3: TCN-538 (3206_O17) (antibody, V domains shown)
VH: QITLKESGPTLVKPTQTLTLTCVFSGFSLSITGVRVGWIRQPPGKALEWLALISWDDEKHYSPSLQSRLTITKDTSKNQVVLTMTNLDPVDTATYYCARSTDRGHVLRYFGWMLPGDAFDVWGQGTMVTVSS
VL: DIVMTQSPDFLPVSLGERATINCKSSQRVLYSSNNKNYLAWYQLKPGQPPKLIIYWASTRESGVPDRFSGSGSGTEFTLTISSLQAEDVAVYYCQQYYSRPYTFGQGTKLEIK
B4: TCN-540 (5060_F05) (antibody, V domains shown)
VH: QVQLVQSGGGVVQPGRSLRLSCAASGFTFSSYAMHWVRQAPGKGLEWVAIISYDGNDQYYTDSVKGRFTISRDSSKVYLQMHRLRPEDTAVYYCAKEFETSGYFHGSFDYWGQGILVTVSS
VL: QSALTQPASVSGSPGQSITISCTGTSSDVGGYNYVSWYQQHPGKAPKLLIYEVTNWPSGVSNRFSGSKSGNTASLTISGLQAEDEADYYCSSYAGSSTWVFGGGTRVTVL
B5: TCN-551 (5243_D01) (antibody, V domains shown)
VH: EVQLVQSGSEVKKPGESLKISCKGSGYSFSNYWIGWVRHMPGKGLEWMGIIYPGDSDTRYSPSFQGQVTMSADKSSSTVYLQWSSLKASDTAIYYCARRGGHSFGYGSGGDTHSEFDSWGQGTLVTVSS
VL: QSVLTQSPSVSAAPGQKVTISCSGSDSNIGDYFVCWYQHLPGKPPQLLIYENNKRPSGIPDRFSGSKSGTSATLGITGIQTGDEADYYCATWDGSLSAWVFGGGTKLTVL
B6: TCN-546 (5089_L08) (antibody, V domains shown)
VH: QVQLQQWGAGLLKPSETLSLTCGVYGGSLSDYYWSWIRQPPGKGLEWIGEINHSGGTNYNPSLKRRVTISVDTSKKQFSLKMNSVTAADTAVYYCARGTDPDTEVYCRAGNCAAFDFWGQGTLVTVSS
VL: EIVLTQSPGTLSLSPGERATLSCRASHFVIGRAVAWYQQKPGQAPRLLIYGASSRATGIPDRFSGSGSGTDFTLTISRLETEDFAVFYCQHYGSSPRYAFGQGTKLEIK
B7: TCN-558 (5248_H10b) (antibody, V domains shown)
VH: QVQLVQSGSEVKKPGTSVKVSCTASGSVFTNYGISWVRQAPGQGLEWMGGIIPLFGAAKYAQKFQGRVTITADESTKTVYMELSRLTSKDTAIYFCAKAPRVYEYYFDQWGQGTPVTVSS
VL: EIVMTQFPATLSVSPGERVTLSCRASQSVSNNLAWYQQKPGQPPRLLIYDASTRATGVPAKFSGTGSGTEFTLSISSLQSEDFAVYYCQQYHNWPPSYSFGLGTKLEIK
B8: TCN-560 (5084_P10) (antibody, V domains shown)
VH: EVQLVESGGGLVQPGGSLRLSCAASGFIFRNYWMSWVRQAPGKGLEWVANIKQDGREKYYVDSLRGRVNISRDNAENSLYLHMNSLRVEDTAVYFCARARMVVVTGDGFDVWGHGTMVTVSS
VL: DIQMTQSPSSLSASVGDRVTITCRASQNIKRYFNWYQQKPGKAPKLLIYAASNLENGVPSRFSGSGSGTDFTLTISSLQPEDFATYYCQQSFSKSWTFGQGTNVDIK
B9: TCN-560 (5084_P10) (antibody, V domains shown)
VH: EVQLVESGGGLVQPGGSLRLSCAASGFIFRNYWMSWVRQAPGKGLEWVANIKQDGREKYYVDSLRGRVNISRDNAENSLYLHMNSLRVEDTAVYFCARARMVVVTGDGFDVWGHGTMVTVSS
VL: DIQMTQSPSSLSASVGDRVTITCRASQNIKRYFNWYQQKPGKAPKLLIYAASNLENGVPSRFSGSGSGTDFTLTISSLQPEDFATYYCQQSFSKSWTFGQGTNVDIK
B10: TCN-542 (5079_A16) (antibody, V domains shown)
VH: QVQLQESGPGLVKPSQTLSLTCTVSGGSISSGNYYWNWVRQHPGKGLEWIGYIYYRGSTFYNPSLKSRVTISIDTSKNQFSLRLSSVTAADTAVYYCAKDTRSSLDNYQYGMDVWGQGTTVTVSS
VL: QTVVTQEPSLTVSPGGTVTLTCASSTGAVTSSYFPNWFQQKPGQAPRPLIYSTTIRHSWTPARFSGSLLGGKAALTLSGVQPEDEADYYCLLYSGGDPVAFGGGTKLTVL
B11: TCN-553 (5261_C18) (antibody, V domains shown)
VH: QVQVVQSGTEVKKPGSSVKVSCQTSGGRFMSYAITWVRQAPGQGLEWMGGIVPVFGTANYAQKFQGRVTITTDDSTRTAYMELSSLRSEDTAVYYCGFRYGSGYGFDSWGQGTLVTVSS
VL: EIVLTQSPGTLSLSPGERATLSCRASQSVSSSYLAWYQKKPGQAPRLLIYGASTRATGIPDRFTGSGSGTDFTLSISRLEPEDFAVYYCQHFGTSVFTFGGGTKVEIK
B12: TCN-545 (5082_I15) (antibody, V domains shown)
VH: QVQLQQWGAGLLKPSETLSLSCAVFGGSFSDYYWTWIRQPPGKGLEWIGEIKHSGRTNYNPSLESRVTISVDTSKNQFSLKLSSVTAADTAIYYCARGTDPDTEGYCRSGSCSAFDFWGQGTLVTVSS
VL: EIVLTQSPGTLSLSPGERATLSCRASHFVNYRSLAWYQQTPGQVPRLLIYGASTRATGIPDRFSGSGSGTDFTLTISRLEPEDFAVYFCQQYGGSPRYTFGQGTRLEIK
B13: TCN-555 (5246_L16) (antibody, V domains shown)
VH: QVQLVQSGAEVKRPGSSVKVSCTASGGIFRKNAISWVRQAPGQGLEWMGGIIAVFNTANYAQKFQNRVKITADESGNTAYMELSSLTSDDTAVYYCASHPKYFYGSGSYPDFWGQGTLVTVSS
VL: QSALTQPRSVSGSPGQSITISCTGGSSDIGASNSVSWYQQHPGKAPKLVIFDVTERPSGVPHRFSGSKSGNTASLTVSGLQPDDEADYFCCAYGGKYLVVFGGGTKVTVL
B14: TCN-556 (5089_K12) (antibody, V domains shown)
VH: QVQLVQSGAEVKKPGASVKVSCKASGYTFIGYDMHWVRQAPGQGLEWMGWINAKRGGTNYAQKFQGRVTMTRDTSISTAYMELNSLRSDDTAVYYCARGVGSRTTIFGVLNPEFDYWGQGTLVTVSS
VL: QSALTQPPSASGSPGQSVTISCTGSSSDVGGYDYVSWYQQHPGKAPKLLIYEVTKRPSGVPDRFSGSKSGNTASLTVSGLQAEDEADYYCSSYAGNYNHVFGPGTKVTVL
B15: TCN-556 (5089_K12) (antibody, V domains shown)
VH: QVQLVQSGAEVKKPGASVKVSCKASGYTFIGYDMHWVRQAPGQGLEWMGWINAKRGGTNYAQKFQGRVTMTRDTSISTAYMELNSLRSDDTAVYYCARGVGSRTTIFGVLNPEFDYWGQGTLVTVSS
VL: QSALTQPPSASGSPGQSVTISCTGSSSDVGGYDYVSWYQQHPGKAPKLLIYEVTKRPSGVPDRFSGSKSGNTASLTVSGLQAEDEADYYCSSYAGNYNHVFGPGTKVTVL
B16: TCN-543 (5081_G23) (antibody, V domains shown)
VH: QVHLVQSGAEVRKPGDSVKVSCKTSGYTFSTYPVAWVRQVPGQGLEWMGWISTYNGNTNFAQNFQGRVTLTTDTTTNTAYMEVRSLKFDDTAVYYCARVEGSYRDFWNNQNRFDPWGQGTLVTVSS
VL: SYVLTQPPSVSVAPGQTARISCGGSNIGGKSVHWYQQKPGQAPVLVVYDDSGRPSGIPERFSGSNSGDTATLTISRVEAGDEADYFCQVWDNFGGVFGTGTKVTVL

Legend:
[1] = target: hemagglutinin (HA) of live influenza A/Wisconsin/67/05 (H3N2) virus (influenza A virus A/Wisconsin/67/2005 …); assay: cell-based or functional assay
[2] = target: hemagglutinin (HA) of live influenza A/Solomon Islands/3/06 (H1N1) virus (influenza A virus A/Solomon …); assay: cell-based or functional assay
[3] = target: hemagglutinin (HA) of live influenza A/California/4/09 (H1N1) virus (influenza A virus A/California/04/2009 …); assay: cell-based or functional assay
[4] = target: recombinant soluble homotrimeric HA, A/northern shoveler/California/HKWF115/2007 (H6N1) (influenza A virus A/northern …); assay: microarray, trimeric HA, transfection supernatant
[5] = target: recombinant soluble homotrimeric HA, A/duck/Yangzhou/02/2005 (H8N4) (influenza A virus …); assay: microarray, trimeric HA, transfection supernatant
[6] = target: recombinant soluble homotrimeric HA, A/chicken/Vietnam/NCVD-016/08 (H5N1) (influenza A virus …); assay: microarray, trimeric HA, transfection supernatant
[7] = target: recombinant soluble homotrimeric HA, A/Hong Kong/156/97 (H5N1) (influenza A virus A/Hong Kong/156/97 …); assay: microarray, trimeric HA, transfection supernatant
[8] = target: recombinant soluble homotrimeric HA, A/Netherlands/219/03 (H7N7) (influenza A virus A/Netherlands/219/03 …); assay: microarray, trimeric HA, transfection supernatant
[9] = target: recombinant soluble homotrimeric HA, A/Anhui/1/05 (H5N1) (influenza A virus A/Anhui/1/2005 (H5N1)); assay: microarray, trimeric HA, transfection supernatant
[10] = target: recombinant soluble homotrimeric HA of A/northern shoveler/California/HKWF115/2007 (H6N1) (Influenza A virus A/northern …); assay: HA microarray, BCC supernatant
[11] = target: recombinant soluble homotrimeric HA of A/duck/Yangzhou/02/2005 (H8N4) (Influenza A virus …); assay: HA microarray, BCC supernatant

Binder | % Neutralization [1] | % Neutralization [2] | other results
B1 | 14% | 0% | 
B2 | 0% | 0% | 
B3 | 0% | 21% | 
B4 | 98% | 3% | 
B5 | 6% | 99% | 
B6 | 100% | 98% | % Neutralization [3]: 0%
B7 | 7% | 84% | 
B8 |  |  | Trimeric HA Binding RLU [4]: 35900 RLU; Trimeric HA Binding RLU [5]: 27900 RLU; Trimeric HA Binding RLU [6]: 18200 RLU; Trimeric HA Binding RLU [7]: 29300 RLU; Trimeric HA Binding RLU [8]: 32100 RLU; Trimeric HA Binding RLU [9]: 18600 RLU
B9 |  |  | Trimeric HA Binding RLU [10]: 42300 RLU; Trimeric HA Binding RLU [11]: 44700 RLU
B10 | 8% | 99% | % Neutralization [3]: 15%
B11 | 5% | 44% | 
B12 | 99% | 88% | 
B13 | 5% | 49% | 
B14 |  |  | Trimeric HA Binding RLU [4]: 34800 RLU; Trimeric HA Binding RLU [5]: 22400 RLU; Trimeric HA Binding RLU [6]: 22700 RLU; Trimeric HA Binding RLU [7]: 24600 RLU; Trimeric HA Binding RLU [8]: 43600 RLU; Trimeric HA Binding RLU [9]: 13800 RLU
B15 |  |  | Trimeric HA Binding RLU [10]: 11900 RLU; Trimeric HA Binding RLU [11]: 16900 RLU
B16 | 73% | 98% | 
